Laboratory results from the supplement of paper PMC10567573.

B1: APBB1IP (parent)
chain: SQVSMWDQRWQDHQPLLPITDVP
B2: FBF1 (parent)
chain: FGDSPKAEKRQIGDQEGPRPARST

Variants of: B1
Assay: protein stability index of a GFP-peptide fusion (GPS, HEK-293T) (PSI 1-6); higher = more stable
Conditions: c terminus: native
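Further: lentivirally expressed fusions sorted by FACS into six bins by GFP to DsRed ratio, PSI derived from sequencing read proportions per bin multiplied by bin number.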

Protein stability index: each site, then its substitutions
D12: L 2.44, M 1.85, E 2.15, S 2.1, Y 3.2, H 1.64, W 1.24
Q14: N 2.89, S 2.38, M 2.15, C 3.58, Y 2.06, K 2.28, R 1.86, T 2.48, A 2.48, E 3.31
P23: H 2.58, K 2.03, G 1.91, Y 2.74, T 2.01, L 2.06, S 3.01, W 2.17, Q 1.61, N 1.81, R 4.33
Q11: S 2.37, H 1.67, T 2.29, W 1.77, F 1.68, L 1.59, I 3.03, P 2.1, V 2.25
T20: K 3.24, L 1.92, Q 2.61, G 1.77, R 2.32, I 1.79, D 2.67, V 1.65
V22: C 2.06, D 3.85, F 2.72, A 2.31, T 2.65, G 2.42, P 2.83, L 2.43
P18: S 2.12, D 3.42, L 1.41, W 1.28, F 1.36, Q 1.71, Y 2.07, G 1.76, N 2.56, A 2.91
D21: W 1.63, H 1.75, F 1.44, K 2.44, E 1.77, Q 1.53
Q2: S 1.88, I 2.75, F 1.31, G 2.07, R 1.66, E 3.32, C 1.94, P 2.83, W 1.72, D 3.38
W6: L 3.09, T 4.02, E 4.03, P 3.18, S 3.08, R 3.29, M 2.65, V 3.01, G 2.95, D 4.13
D7: S 1.61, L 1.72, G 1.49, T 2.27, I 1.04, H 1.68, R 1.77
S1: W 3.14, Q 2.36, D 2.25, K 1.76, V 2.85, L 1.36, E 3.87, H 2.46
R9: D 3.69, N 2.73, I 2.34, A 1.84, W 1.93, F 3.11, M 3.13, Y 2.42, Q 3.39
V3: C 1.91, Y 2.27, M 2.83, P 2.8, A 3.18
W10: M 2.4, I 2.81, K 3.75, R 3.03, L 2.51, Y 2.55
Q8: E 2.6, V 2.33, K 2.68, C 1.37, G 2.27, R 1.78, Y 2.21, D 2.35, M 1.39
S4: E 3.8, I 2.42, D 2.58, P 2.73, N 2.92, Q 4.05, A 2.84
H13: C 2.24, L 1.95, G 3.03, Q 2.43, V 2.47, K 2.76, W 1.5, T 2.94, N 2.85, E 3.47, P 2.23, Y 2.15
L16: A 2.95, G 3.07, P 2.38, V 2.54, R 2.61, Y 3.06, M 2.53, C 2.83, N 3.54, Q 2.73
M5: D 3.15, P 3.15, S 2.5, V 1.65, R 3.34
I19: P 3.04, M 2.62, W 1.36, V 2.17, R 3.17, F 2.79, H 3.78
L17: C 2.06, D 3.79, H 3.2, T 2.58, Y 2.19, P 2.84, R 2.26, W 2.96, K 3.67, S 2.34
P15: C 2.18, W 1.43, Q 3.25, S 3.35, I 2.03, K 2.82, E 2.77, A 2.23, D 4.41, L 2.06, M 1.82

Variants of: B2
Assay: as above
Conditions: c terminus: a fixed tail appended

Protein stability index, by site and new letter:
D3: F 5.01, A 4.79, K 4.17, N 5.06, E 5.41, C 4.62, I 5.04, V 5.55, Y 4.67, T 4.99, Q 5.25, H 4.49, P 5.14, W 3.87, M 4.57, S 4.89, L 5.13, R 4.97
P5: Y 4.86, F 3.64, V 4.13, D 5.72, K 4.43, H 5, L 4.58, R 4.75, C 4.63, A 4.85, Q 4.55, M 4.88, G 4.79, S 4.84, T 5.19, E 5.24, N 5.53, I 4.89, W 1.37
G2: K 4.72, Q 4.99, V 1.77, F 4.63, W 5.31, I 3.83, S 4.96, R 5.98, P 5.29, D 4.94, E 5.83, C 4.19, N 4.16, Y 5.18, A 4.53, T 4.82, M 4.96, H 4.58
S4: D 5.43, E 5.2, M 4.68, C 5.01, G 4.96, L 5.27, Q 4.75, F 4.75, P 5.05, R 4.88, T 4.16, H 5.43, V 5.61, K 4.79, Y 4.31, I 5.33, N 4.79, W 2.73, A 4.3
K6: I 4.78, D 5.22, A 5.55, C 5.52, W 4.57, V 4.24, Q 3.71, F 4.06, P 4.89, E 5.25, N 5.08, L 4.84, Y 4.8, S 5.64, T 5.56
A7: N 5.24, Q 5.1, F 3.85, V 3.47, T 4.44, S 5.09, K 5.31, H 4.03, D 5.53, E 5.89, Y 4, R 5.15, G 4.89, I 5.03, L 5.32
E8: R 4.43, Q 4.48, F 3.27, I 4.26, A 4.84, L 3.87, D 5.48, Y 3.39, S 4.58, T 3.77, N 4.53, C 4.11, P 4.97
F1: G 5.72, S 5.51, N 5.54, H 5.52, T 5.76, K 5.79, L 5.36, A 5.87, E 5.52, M 5.85, Y 5.42, P 5.58, I 5.41, C 4.95, D 5.81, R 5.67, W 5.69
K9: D 5.52, E 5.1, A 4.97, G 5.2, F 4.43
